Experimental data: paper PMC12159748

Legend:
[1] = system: MBP-P6.9 NA-FLAG (7A, hypo-phosphorylation mimic) (Autographa californica multiple nucleopolyhedrovirus (AcMNPV)); assay: fluorescence polarization; conditions: FP: 50 mM HEPES pH 7.5, 0.005% sarcosyl, 100 mM NaCl, 0.5 mM EDTA, 1 mM DTT, 20 nM DNA, 1 h at 4 C, EMSA: 50 mM Tris pH 7.4, 100 mM NaCl, 1 mM EDTA
[2] = system: MBP-P6.9 NE-FLAG (7E, hyper-phosphorylation mimic) (Autographa californica multiple nucleopolyhedrovirus (AcMNPV)); assay: fluorescence polarization; conditions: FP: 50 mM HEPES pH 7.5, 0.005% sarcosyl, 100 mM NaCl, 0.5 mM EDTA, 1 mM DTT, 20 nM DNA, 1 h at 4 C, EMSA: 50 mM Tris pH 7.4, 100 mM NaCl, 1 mM EDTA

## 39-bp DNA
[1]
  Kd: 450 nM
[2]
  Kd: 1750 nM
